# The RNAGym collection of RNA variant scans (doi:10.1073/pnas.2313332121)
# B1: TPR t1 (parent)
# chain: GACCAAUCUGCCCUCAGAGCUCGAGAACAUCUUCGGAUGCAGAGGAGGCAGGCUUCGGUGGCGCGAUAGCGCCAACGUCCUCAACCUCCAAUGCAUCCCACCACAUGAUGAUGCCUGAAGAGCCUUGGUUUUUUG
# Variants of: B1
# Experiment: polymerase ribozyme fitness, log enrichment relative to wild type (log ratio); higher = more active; in vitro selection for triplet polymerase activity
# Method in brief: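 A single round of triplicate in vitro selection, including frozen incubation at −7 °C, was applied to PCR-built, transcribed mutant libraries of each subunit of a heterodimeric triplet polymerase ribozyme. Illumina sequencing of input and output libraries retained genotypes with ≥10 input reads and ≥1 read per output. Fitness is the base-2 logarithm of genotype enrichment divided by wild-type enrichment, from inverse-variance-weighted replicate averages.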
row,Variant,polymerase ribozyme fitness (log ratio)
1,GACCAAUCUGCCCUCAGAGCUCGAGAACAUCUUCGGAUGCAGAGGAGGCAGGCAUCGGUGGCGCGAUAGCUCCAACGUCCUCAACCGCCAAUGCAUCCCACCACAUGAUGAUGCCUGAAGAGACUUGGUUUUUUG [U54A G71U U87G C123A],-0.353
2,GACCAAUCUGCCCUCAGAGCUCGAGAACAUCUUCGGAUGCAGAGGAGGCAGGCAUCGCUGGCGUGAUAGCGCCAACGUCCUCAACCUCCAAUGCAUCCCACCACAUGAUCAUGCCUGAAGAGCCUUGGUUUUUUG [U54A G58C C64U G110C],-5.03
3,GACCAAUCUGCCCUCAGAGCUCGAGAACAUCUUCGGAUGCAGAGGAGGCAGGCCUCCGUGGCGCGAUAGCGGCAACGUCCUCAACCUCCAAUGCAUCCCACCACAUGAUGACGCCUGAAGAGCCUUGGUUUUUUG [U54C G57C C72G U112C],0.604
4,GACCAAUCUGCCCUCAGAGCUCGAGAACAUCUUCGGAUGCAGAGGAGGCAGGCCUAGGUGGCGCGAUAGCGCCAACGUCCUCAACCUCUAAUGCAUCCCACCACAUGAUGAUGCCUGAAGAGCCUUGGUUUUUUG [U54C C56A C89U],-0.439
5,GACCAAUCUGCCCUCAGAGCUCGAGAACAUCUUCGGAUGCAGAGGAGGCAGGCAUCGGUGGCGCGAUAGCGCCAACGUCCUCAACCUCCAAUGCAUCCCACCACAUGAUAAUGCGUGAAGAGCCUUGGUUUUUUG [U54A G110A C115G],-4.1
6,GACCAAUCUGCCCUCAGAGCUCGAGAACAUCUUCGGAUGCAGAGGAGGCAGGCAUCGGUGGCGCGAUAGCCCCAACGUCCUCAACCUCUAAUGCAUCCCACCACAUGAUGAUGCCUGAAGAGCCUUGGAUUUUUG [U54A G71C C89U U129A],-2.49
7,GACCAAUCUGCCCUCAGAGCUCGAGAACAUCUUCGGAUGCAGAGGAGGCAGGCCUCGGUGGCGUGAUAGCGCCAACUUCCUCAACCUCCAAUGCAUCCCACCACAUGAUGAUCCCUGAAGAGCCUUGGUUUAUUU [U54C C64U G77U G113C U132A G135U],-3.36
8,GACCAAUCUGCCCUCAGAGCUCGAGAACAUCUUCGGAUGCAGAGGAGGCAGGCAUCGGUGGCGCGAUAGCGCCAACGUCCUCAACCUCCAAUGCAUCCCACCACAAGAUGAUGCCUGAAGAGCCUUGGUUUUUUG [U54A U106A],-1.04
9,GACCAAUCUGCCCUCAGAGCUCGAGAACAUCUUCGGAUGCAGAGGAGGCAGGCCUCGGUGGCGCGAUAGCGCCAACGUCCUCAACCUCCAAUGCAUCCCACCACAUGAUGAUGCCUGAAGAGCCUUGGUUUUUUG [U54C],0.321
10,GACCAAUCUGCCCUCAGAGCUCGAGAACAUCUUCGGAUGCAGAGGAGGCAGGCAUCGGUGGCACGAUAGCGCGAACGUCCUCAACCUCCAAUGCAUCCCACCACAUGAUGAUGCCUGAAGAGCCUUGGUUUUUUG [U54A G63A C73G],-6.66
11,GACCAAUCUGCCCUCAGAGCUCGAGAACAUCUUCGGAUGCAGAGGAGGCAGGCAACGGUGGCGCGAUAGCGCCGACGUCCUCAACCUCCAAUGCAUCCCACCACAUGAUGAUGCCUGAAGAGCCUUGGUUUUUUG [U54A U55A A74G],-0.235
12,GACCAAUCUGCCCUCAGAGCUCGAGAACAUCUUCGGAUGCAGAGGAGGCAGGCCUGGGUGGCGCGAUAGCGCCAACGUCCUCAACCUCCAAUGCAUCCCACCACAUGAUGAUGCCUGAAGAGCCUUGGUUGUUUG [U54C C56G U131G],-1.34
13,GACCAAUCUGCCCUCAGAGCUCGAGAACAUCUUCGGAUGCAGAGGAGGCAGGCAUCGGUGGCGCGAUAGCGCCAACGUCCCCAACCUCCGAUGCAUCCCACCACAUGAUGAUGCCUGAAGAGUCUUGGUUUUUUG [U54A U81C A90G C123U],0.715
14,GACCAAUCUGCCCUCAGAGCUCGAGAACAUCUUCGGAUGCAGAGGAGGCAGGCAUCGGUGGCGCGAUAGCGCCAACGUCCUCAACCUCCAAUGCAACCCACCACAUGAUGAUCCCUGAAGAGUCUAGGUUUUUUG [U54A U96A G113C C123U U126A],-4.27
15,GACCAAUCUGCCCUCAGAGCUCGAGAACAUCUUCGGAUGCAGAGGAGGCAGGCAUCGGUGACGCGAUAGCGCCAACGUCCUCAACCUCCAAUGCAUCCCACCACAUGAUGAUGCCUGAAGAGCCUUGGUUUUUUG [U54A G61A],0.266
16,GACCAAUCUGCCCUCAGAGCUCGAGAACAUCUUCGGAUGCAGAGGAGGCAGGCCUCGGUGGCGCGAUAGCGCCAACGUCCUCAACCUUCAAUGAAUCCCAUCACAUGAUGAUGCCUGAAGAGCCUUGGUUUUUUG [U54C C88U C94A C101U],-0.155
17,GACCAAUCUGCCCUCAGAGCUCGAGAACAUCUUCGGAUGCAGAGGAGGCAGGCCUCGGUGGCGCGAUAGCGCAAACGUCCUCAACCUCCAAUGCAUCCCACCACAUGAUGAUGCCUGAAGUGCCUUGGUUUUUUG [U54C C73A A121U],2.33
18,GACCAAUCUGCCCUCAGAGCUCGAGAACAUCUUCGGAUGCAGAGGAGGCAGGCAUCGGUGGCGCGAUAGCGCCAACGUCCUCAACCUCCAAUGCAUCCCACUACAUGAUGAUGCCUGAAGAGCCUUGGUUUUUUG [U54A C102U],-2.1
19,GACCAAUCUGCCCUCAGAGCUCGAGAACAUCUUCGGAUGCAGAGGAGGCAGGCAUCGGUGGCGCGAUAGCGCCAACGUCCUCAACCUCCAAUGCAUCCCACGACAUGAUGAGGCCUGAAGAGCCUUGGUUUUUUG [U54A C102G U112G],-6.74
20,GACCAAUCUGCCCUCAGAGCUCGAGAACAUCUUCGGAUGCAGAGGAGGCAGGCAUCGGUGGCGCGAUAGCGCCAACGUCCUCAACCUCCAAUGCAUCCCACCACAUGAUGAAGCCUCAAGAGCCUUGGUUUUUUG [U54A U112A G117C],-3.84
21,GACCAAUCUGCCCUCAGAGCUCGAGAACAUCUUCGGAUGCAGAGGAGGCAGGCAUCGGUGGCGCGAUAACGCCAACGGCCUGAACCUCCAAUGCAUCCCACCACAUGAUGAUGCCUGAAGUGCCUUGGUAUUUUG [U54A G69A U78G C82G A121U U130A],-1.06
